Test: yeast display, Sf9 membrane polyspecificity reagent, FACS + sequencing; frameworks hold sequencing errors
In short: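 A nanobody's polyreactivity label depends on the gate it was sorted from. Yeast display cells were stained with 10% biotinylated, detergent-solubilized Sf9 membrane reagent for 1 hour at 4 °C, enriched on streptavidin microbeads and sorted by FACS. The low and high (top ~1%) gates were set on anti-HA fluorescence for expression and streptavidin fluorescence for reagent binding.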

QVQLVESGGGLVQAGGSLRLSCAASGRIFGIYAMGWYRQAPGKERELVASITDGTITNYADSVKGRFTISRDNAKNTVYLQMNSLKPVDTAVYYCAAGTQAHAYVVRPIEMDYWGQGTQVTVSS
polyreactivity (PSR sort gate): low polyreactivity

QVQLVESGGGLVQAGGSLRLSCAASGRIFGIYAMGWYRQAPGKERELVASITGSSGSTNYADSVKGRFTISRDNAKNTVYLQMNSLKPDDTAVYYCAADIPSYYWWRAYDYWGQGTQVTVSS
polyreactivity (PSR sort gate): low polyreactivity

QVQLVESGGGLVQAGGSLRLSCAASGRIFGIYAMGWYRQAPGKERELVSRITGGGSTNYADSVKGRFTISRDNAKNTVYLQMNSLKPEDTAVYYCAADSYLSVYDPYGYWGQGTQVTVSS
polyreactivity (PSR sort gate): low polyreactivity

QVQLVESGGGLVQAGGSLRLSCAASGRIFGIYAMGWYRQAPGKERVLVAAISRSGGSTYYADSVKGRFTISRDNAKNTVYLQMNSLKPEDTAVYYCAADSRSWTGYYYWGQGTQVTVSS
polyreactivity (PSR sort gate): high polyreactivity

QVQLVESGGGLVQAGGSLRLSCAASGRIFGIYAMGWYRQAPGKESEFVAAISWRTGSTYYADSVKWRFTISRDNAKNTVYLQMNRLNPADTAVYYCAAESASKYGYWVQGTQVTVSS
polyreactivity (PSR sort gate): high polyreactivity

QVQLVESGGGLVQAGGSLRLSCAASGRIFGIYAMGWYRQAPRKERELVASITDGTITNYADSVKGRFTISRDNAKNTVYLQMNSLKPEDTAVYYCAAGTQAHAYVVRPIEMDYWGQGTQVTVSS
polyreactivity (PSR sort gate): low polyreactivity

QVQLVESGGGLVQAGGSLRLSCAASGRIFGIYTMGWYRQAPGKERELVAAISRSGGSTYYADSVKGRFTISRDNAKNTVYLQMNSLKPEDTAVYYCAAVPYRFPGYGFDSWGQGTQVTVSS
polyreactivity (PSR sort gate): high polyreactivity

QVQLVESGGGLVQAGGSLRLSCAASGRIFGKNAMGWYRQAPGKERELVAAITGSGGNTYYADSVKGRFTISRDNAKNTVYLQMNSLKPEDTAVYYCNTSPRFRRYPDYDYWGQGTQVTVSS
polyreactivity (PSR sort gate): high polyreactivity

QVQLVESGGGLVQAGGSLRLSCAASGRIFGKYAMGWYRPAPGKERELVAAIDGSGSTNYADSVKGRFTISRDNAKNTVYLQMNSLKPEDTAVYYCATDHAQKFRYRSPREYWGEGTQVTVSS
polyreactivity (PSR sort gate): low polyreactivity

QVQLVESGGGLVQAGGSLRLSCAASGRIFGKYAMGWYRQAPGKERELVAVITSRDGRTYYADSVKGRFTISRDNAKNTVYLQMNSLIPEDTAVYYCAADYWTGITPDAIGDYWGQGTQVTVSS
polyreactivity (PSR sort gate): low polyreactivity

QVQLVESGGGLVQAGGSLRLSCAASGRIFGKYAMGWYRQAPGKERELVAVITSRDGRTYYADSVKGRFTISRDNAKNTVYLQMNSLKPEDTAVYYCAADLVNGHYYYWGQGTQVTVSS
polyreactivity (PSR sort gate): low polyreactivity

QVQLVESGGGLVQAGGSLRLSCAASGRIFGLNAMGWYRQAPGKETEFVAAITWRGGRTYYADSVKGRFTISRDKANKTVYLQMNSLKPEDTAVYYCAADGGSTLDYFWGQGTQVTVSS
polyreactivity (PSR sort gate): low polyreactivity

QVQLVESGGGLVQAGGSLRLSCAASGRIFGLYAMGWYRQAPGKERELVATITRRGGSTYYADSVKGRFTISRDNAKNTVYLQMNSLKPEDTAVYYCNVRTLVQHHSSYSSRYDSWGQGTQVTVSS
polyreactivity (PSR sort gate): high polyreactivity

QVQLVESGGGLVQAGGSLRLSCAASGRIFGLYSRGSYRQAPGKERELVAAISSRGGSTYYADSVKGRFTISRDNAKNTVYLQMNSLKPEDTAVYYCARETSYFGPSDYDYWGQGTQVTVSS
polyreactivity (PSR sort gate): high polyreactivity

QVQLVESGGGLVQAGGSLRLSCAASGRIFGNNVMGWYRQAPGKERELVASINYSGGSTYYADSVKGRFTISRDNAKNTVYLQMNSLKPEDTAVYYCARSYGWYPWRTSYTVGFYYWGQGTQVTVSS
polyreactivity (PSR sort gate): high polyreactivity

QVQLVESGGGLVQAGGSLRLSCAASGRIFGPYAMGWSRQAPGKERELVASISYSGGSTYYADSVKGRFTISRDNAKNTVYLQMNSLKPEDTAVYYCNALSRTAWSYYLYPSTPFDYWGQGTQVTVSS
polyreactivity (PSR sort gate): low polyreactivity

QVQLVESGGGLVQAGGSLRLSCAASGRIFGPYAMGWYRQAPGKERELVASITRSGGRTYYADSVKGRFTISRDNAKNTVYLQMNSLKPEDSAVYYCAAGGFSKSYYYWGQGSQVTVSS
polyreactivity (PSR sort gate): high polyreactivity

QVQLVESGGGLVQAGGSLRLSCAASGRIFGPYTMGWYRQAPGKEREFVAAITRRGGSTYYADSVKGRFTISRDNAKNTVYLQMNSLKPEDTAVYYCAAVGQKRSLGYSWGQGTQVTVSS
polyreactivity (PSR sort gate): low polyreactivity

QVQLVESGGGLVQAGGSLRLSCAASGRIFGPYTMGWYRQAPGKERELVATISYSGSTTYYADSVKWRFTISRDNAKNTVYLQMNSLKPEDTAVYYCNAQYYVFITFDYWGQGTQGTVSS
polyreactivity (PSR sort gate): high polyreactivity

QVQLVESGGGLVQAGGSLRLSCAASGRIFGQNAMGWYRQAPGKERELVAAITGSGGRTYYADSVKGRFTISRDNAKNTVYLQMNSLKPEYTAVYYCAVSVTSYYRTMDYWGQGTQVTVSS
polyreactivity (PSR sort gate): low polyreactivity

QVQLVESGGGLVQAGGSLRLSCAASGRIFGQYAMGWYRQAPGKEREFVAGISTTGGSTYYADSVKGRFTISRDNAKNTVYLQMNSLKPEDTAVYYCAVRINWSRWYHYYTYNYWGQGTQVTVSS
polyreactivity (PSR sort gate): high polyreactivity

QVQLVESGGGLVQAGGSLRLSCAASGRIFGQYTMGWYRQAPGKERELVAAISRSSSTKYADSVKGRFTISRDNAKNTVYLQMNSLKPEDTAVYYCAAYVYYYGGRTYDYWGQGTQVTVSS
polyreactivity (PSR sort gate): high polyreactivity

QVQLVESGGGLVQAGGSLRLSCAASGRIFGRNAMGWYRQAPGKERELVAGISGRGGITYYADSVKGRFTISRDNAKNTVYLQMNSLKPEDTAVYYCAATGGDYYDFSYWGQGTQVTVSS
polyreactivity (PSR sort gate): high polyreactivity

QVQLVESGGGLVQAGGSLRLSCAASGRIFGRNAMGWYRQAPGKERELVASITSGGGTNYADSVKGRFTISRDNAKNTVYLQMNSLKPEDTAVYYCAAKRHLEGYSGSIGRYYYWGQGTQVTVSS
polyreactivity (PSR sort gate): low polyreactivity

QVQLVESGGGLVQAGGSLRLSCAASGRIFGRNPMGWYRQAPGKERELVAAITSRGTRTYYADSVKGRFTISRDNAKNTVYLQMISLKPEDTAVYYCNAAYYHSSSYPDYDYWGQGTQVTVSS
polyreactivity (PSR sort gate): high polyreactivity

QVQLVESGGGLVQAGGSLRLSCAASGRIFGRYAMGWYRPAPGKERELVAAISRSGGSTYYADSVKGRFTISRDNAKNTVYLHMNSLKPEDTAVYYCAAERWTRRHYSGNDYWGQGTQVTVSS
polyreactivity (PSR sort gate): low polyreactivity

QVQLVESGGGLVQAGGSLRLSCAASGRIFGRYAMGWYRQAPGKEREFVATITSRGGNTYYADSVKGRFTISRDTAKNSVYLQMNSLKPEDTAVYYCNADYLWFNFYYWGQGTQVTVSS
polyreactivity (PSR sort gate): low polyreactivity

QVQLVESGGGLVQAGGSLRLSCAASGRIFGRYAMGWYRQAPGKERELVAAIPRNGGSTYADSVNGRFTISRDNAKNTVYLQMNILKPEDTAVYYCAKKRGGKKSGPHDYWGQGTQVTVSS
polyreactivity (PSR sort gate): high polyreactivity

QVQLVESGGGLVQAGGSLRLSCAASGRIFGRYAMGWYRQAPGKERELVAAISGGGSTNYADSVKGRFTISRDNAKNTVYLQMNSLKPEDTAVYYCAADDDWSGVEFDYWGQGTQVTVSS
polyreactivity (PSR sort gate): low polyreactivity

QVQLVESGGGLVQAGGSLRLSCAASGRIFGRYAMGWYRQAPGKERELVAAISSGGNTYYADSVKGRFTISRDNAKNTVYLQMNSLKPEDTAVYYCKALYYRQPGYDYWGQGTQVTVSS
polyreactivity (PSR sort gate): high polyreactivity

QVQLVESGGGLVQAGGSLRLSCAASGRIFGRYAMGWYRQAPGKERELVAAITGRGASTYYADSVKGRFTISRDNAKNTVYLQMNSLKPEDTAVYYCNAFRGAQGTDAYDWGQGTQVTVSS
polyreactivity (PSR sort gate): low polyreactivity

QVQLVESGGGLVQAGGSLRLSCAASGRIFGRYAMGWYRQAPGKERELVAGITGSSGTTYYADSVKGRFTISLDNAKNTVYLQMNSLKPEDTAVYYCAVETYWHARSHDYWGQGTQVTVSS
polyreactivity (PSR sort gate): low polyreactivity

QVQLVESGGGLVQAGGSLRLSCAASGRIFGRYAMGWYRQAPGNERELVAAISRRGSRTYYADSVKGRFTISRDNAKNTVYLQMNSLKPEDTAVYYCNALTGSFKTYSFDYWGQGTQVTVSS
polyreactivity (PSR sort gate): high polyreactivity

QVQLVESGGGLVQAGGSLRLSCAASGRIFGRYGMGWYRQAPGKERELVAAISRSGDRTYYADSVKGRFTISRDNAKNTVYLQMNSLKPEDTAVYYCAAYSYRYDYWGQGTQVTVSS
polyreactivity (PSR sort gate): high polyreactivity

QVQLVESGGGLVQAGGSLRLSCAASGRIFGSNTMGWFRQAPGKERELVAAITGDDSTYADSVKGRFTISRDNAKNTVYLQMNSLKPVDTAVYYCAVVWVWDVWFLVYYWGQGTQVTVSS
polyreactivity (PSR sort gate): low polyreactivity

QVQLVESGGGLVQAGGSLRLSCAASGRIFGSYAMGWYRQAPGKERELVAAITTDDSTNYADSVKGRFTISRDNAKNTVYLQMNSLKPEDTAVYYCNAERWDELFDSWGQVTQVTVSS
polyreactivity (PSR sort gate): low polyreactivity

QVQLVESGGGLVQAGGSLRLSCAASGRIFGSYVMGWYRQAPGKERELVAAISRGGSTYYADSVKGRFTISRDNAKNTVYLQLNSLTPEDTAVYYCAAYSIYGTSYLYTQAFYYWGQGTQVTVSS
polyreactivity (PSR sort gate): high polyreactivity

QVQLVESGGGLVQAGGSLRLSCAASGRIFGTHDMGWYRQAPGKESELVAAIRATSGSTYYADSVKGRFTISRDNAKNTVYLQMYSLKPEDTAVYYCAAEIWRYNSYIKYWHRVDYWGQGTQVTVSS
polyreactivity (PSR sort gate): high polyreactivity

QVQLVESGGGLVQAGGSLRLSCAASGRIFGTNAMGWYRQAPGKERELVADITSGGSTNYADSVKGRFTISRDNAKNTVYLQMNSLTPEDTAVYYCAADVIGDLRWYRDEYWGQGTQVTVSS
polyreactivity (PSR sort gate): low polyreactivity

QVQLVESGGGLVQAGGSLRLSCAASGRIFGTNAMGWYRQAPGKERELVATITRGGGNTYYADSVKGRFTISRDNAKNTVYLQMNSLKPEDTAVYYCAAKFNRFAWYSHYDYWGQGTLVTVSS
polyreactivity (PSR sort gate): low polyreactivity

QVQLVESGGGLVQAGGSLRLSCAASGRIFGTNAMGWYRQAPGTEMELDADITSGGSTNYADSVKGRFTISRDNAKNTVYLQMNSLKPEDTAVYYCAADVIGDLRWYREEYWGQGTQVTVSS
polyreactivity (PSR sort gate): low polyreactivity

QVQLVESGGGLVQAGGSLRLSCAASGRIFGTNTMGWYRQAPGKERELVAGISSSGDSTYYADSVKGRFTISRDNAKNTVYLQMNSLKPEDTAVYYCAARKGEFWFPQGGYNYWGQGTQVTVSS
polyreactivity (PSR sort gate): low polyreactivity

QVQLVESGGGLVQAGGSLRLSCAASGRIFGTYAMGWYRQAPGKERELVAAITQSGGRTYYADSVKGRFTISRDNAKNTVYLQMNSLKPEDTAVYYCAADSGKRRYGYYYWGQGTQVTVSS
polyreactivity (PSR sort gate): high polyreactivity
